One molecule from publication PMC10421887 (Scientific Reports, 2023) can be followed below.

The target of the assay is T1, SARS-CoV-2 Nucleocapsid Protein with GST-tag, biotinylated (Severe acute respiratory syndrome …, UniProt P0DTC9).
T1 construct: also called NP; N-GST
The assay can be described thus: ELISA; […], room temperature; […]. Particulars: one partner purified. Background: ELISA stands for enzyme-linked immunosorbent assay.

B1: Fab N1G1 (Fab, V domains shown)
VH: EVQLLESGGGLVQPGGSLRLSCAASGFTFSDYYMHVRQAPGKGLEWVSEINPSSGNTDYADSVKGRFTISRDNSKNTLYLQMNSLRAEDTAVYYCAREYEEHGYYLTDYYFDYWGQGTLVTVSS
VL: EIVLTQSPGTLSLSPGERATLSCRASQSVSSSALAWYQQKPGQAPRLLIYGASSRATGVPDRFSGSGSGTDFTLTISRLEPEDFAVYYCQQMHSTPWTFGQGTKVEIK
notes: also called positive control for anti-NP1 & 2 screening
On to B1, for which the binding result is listed as “binds”.
